In patent US20250011363A1, “OPTIMIZED SHORTENED PEPTIDE THAT BINDS TO ACETYLCHOLINE RECEPTOR, AND USE THEREOF” (SKINMED CO., LTD., priority 2021, published 2025):

Each substance was assayed against acetylcholine receptor (Homo sapiens, UniProt P02708) (assay: SPR binding affinity (RU) of optimized 5mer/6mer/7mer peptides, Examples 6-7). Conditions: 6mer-1 Top sequence; SPR; peptides tested at 10 μM.
Summary of the method: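 Binding response (RU) to the human acetylcholine receptor was measured by SPR. Each 5mer or 6mer library peptide was applied at 10 μM, with sequences drawn from top and bottom amino-acid combinations.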

acetylcholine receptor, sequence (P02708 21-457): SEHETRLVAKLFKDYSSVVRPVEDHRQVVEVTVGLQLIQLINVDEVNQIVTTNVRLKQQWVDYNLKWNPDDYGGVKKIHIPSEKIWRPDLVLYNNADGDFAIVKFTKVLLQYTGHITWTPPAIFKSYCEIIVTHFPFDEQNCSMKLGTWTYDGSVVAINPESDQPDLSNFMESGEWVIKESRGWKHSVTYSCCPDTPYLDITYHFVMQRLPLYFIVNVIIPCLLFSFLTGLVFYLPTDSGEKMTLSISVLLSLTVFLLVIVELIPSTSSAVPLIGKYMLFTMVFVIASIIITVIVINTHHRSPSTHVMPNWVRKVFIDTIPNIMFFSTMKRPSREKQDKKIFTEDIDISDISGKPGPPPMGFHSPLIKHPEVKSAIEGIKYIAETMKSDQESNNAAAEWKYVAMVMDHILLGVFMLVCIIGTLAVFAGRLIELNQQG

Substance	Binding affinity
6mer-1-390 (RKLQQR)	121 Ru
6mer-1-371 (KRSLTR)	153 Ru
6mer-1-241 (RRLYYK)	148 Ru
6mer-1-218 (KKQVTR)	126 Ru
6mer-1-267 (KRRLLR)	139 Ru

Same assay, conditions: 6mer-2 Top sequence; SPR; peptides tested at 10 μM

Substance	Binding affinity
6mer-2-123 (RQFTKR)	146 Ru
6mer-2-45 (RSLTKK)	121 Ru
6mer-2-44 (KSVRRK)	145 Ru
6mer-2-126 (KWLYRR)	148 Ru
6mer-2-159 (RQYYRK)	127 Ru
6mer-2-154 (KRVTKR)	148 Ru

Same assay, conditions: SPR, Resonance Units; 5mer Bottom sequence (bottom combinations); peptides tested at 10 μM

Substance	Binding affinity
5mer-979 (RHHMK)	23 Ru
5mer-926 (RNCWK)	22 Ru
5mer-680 (RFTER)	21 Ru
5mer-732 (KIMWR)	22 Ru
5mer-778 (KKDHK)	24 Ru

Same assay, conditions: SPR, Resonance Units; peptides tested at 10 μM; 6mer-1 Bottom sequence

Substance	Binding affinity
6mer-1-1141 (KRNMHK)	40 Ru
6mer-1-1134 (KRMSWK)	22 Ru
6mer-1-1096 (RKPEPR)	23 Ru

Same assay, conditions: SPR, Resonance Units; peptides tested at 10 μM; 6mer-1 Bottom sequence (Table 11)

Substance	Binding affinity
6mer-1-762 (KKTKAR)	13 Ru
6mer-1-668 (RKATVK)	17 Ru
6mer-1-742 (RRFHWR)	14 Ru
6mer-1-781 (RRHWDK)	16 Ru
6mer-1-653 (KRMTHR)	15 Ru

Same assay, conditions: SPR, Resonance Units; peptides tested at 10 μM; 6mer-2 Bottom sequence

Substance	Binding affinity
6mer-2-971 (KEMFRK)	29 Ru
6mer-2-819 (KFSVRR)	23 Ru
6mer-2-691 (RHKMRK)	15 Ru

Same assay, conditions: SPR, Resonance Units; peptides tested at 10 μM; 6mer-2 Top sequence

Substance	Binding affinity
6mer-2-516 (RQQQKK)	146 Ru
6mer-2-499 (RLFTKR)	145 Ru
6mer-2-475 (KRFCRR)	139 Ru
6mer-2-519 (KQIQRR)	135 Ru
6mer-2-540 (KRLTRR)	142 Ru

Same assay, conditions: SPR, Resonance Units; peptides tested at 10 μM; 6mer-2 Top sequence (Table 12)

Substance	Binding affinity
6mer-2-384 (RSFQKK)	142 Ru
6mer-2-348 (KSQLRR)	153 Ru

Same assay, conditions: SPR, peptides at 10 μM; 6mer-2 Bottom sequence

Substance	Binding affinity
6mer-2-1014 (RPPMRR)	34 Ru
6mer-2-1177 (RASEKR)	41 Ru
6mer-2-1198 (RMSHRR)	27 Ru
6mer-2-1007 (RHTNKK)	42 Ru
6mer-2-1137 (RTDFKR)	22 Ru

Same assay, conditions: SPR, peptides tested at 10 μM; 5mer Top sequence

Substance	Binding affinity
5mer-28 (RLLSR)	74 Ru
5mer-37 (RRLSR)	72 Ru
5mer-376 (KGQLR)	65 Ru
5mer-489 (KSYSR)	63 Ru
5mer-406 (KVYLR)	84 Ru
5mer-152 (RRRRR)	56 Ru

Same assay, conditions: SPR, peptides tested at 10 μM; 5mer Top sequence (top combinations)

Substance	Binding affinity
5mer-561 (KWRCK)	72 Ru
5mer-539 (RVVTR)	70 Ru
5mer-540 (RQFYR)	74 Ru
5mer-298 (KSIYR)	75 Ru
5mer-292 (KLVCK)	59 Ru

Same assay, conditions: SPR, peptides tested at 10 μM; 6mer-1 Bottom sequence (Table 11)

Substance	Binding affinity
6mer-1-894 (RKCWWR)	18 Ru

Same assay, conditions: SPR, peptides tested at 10 μM; 6mer-1 Top sequence

Substance	Binding affinity
6mer-1-431 (RRRFRR)	144 Ru
6mer-1-598 (RKWLSK)	142 Ru
6mer-1-525 (RRQLRR)	139 Ru
6mer-1-435 (RKWRCK)	135 Ru
6mer-1-453 (KKWQQK)	154 Ru

Same assay, conditions: SPR, peptides tested at 10 μM; 6mer-1 Top sequence (top combinations)

Substance	Binding affinity
6mer-1-149 (RRWVCK)	131 Ru
6mer-1-148 (RKLRCR)	146 Ru
6mer-1-169 (RRQQSK)	153 Ru
6mer-1-200 (RKLYQR)	142 Ru
6mer-1-186 (RRRVYK)	147 Ru

Same assay, conditions: SPR; XRRGVRR-7mer and RRGVRRX-7mer

Substance	Binding affinity, values relative to the RRGVRR sequence
3642 (ARRGVRR) [compound 3642]	134
3656 (KRRGVRR) [compound 3656]	169

Same assay, conditions: SPR; peptides tested at 10 μM; 5mer Bottom sequence

Substance	Binding affinity
5mer-1129 (KFDAR)	14 Ru
5mer-842 (RHNVK)	20 Ru
